The results in this text go back to the RNAGym collection of RNA variant scans (doi:10.7554/elife.80360).

First the molecules themselves.
B1: Hairpin Ribozyme (parent)
chain: GUCCUCUUUCACGUGCGCGUGAAAGAGAGAAGUGAACCAGAGAAACACACGUUGUGGUAUAUUACCUGGUA

In this series the parent is B1. Kind of series: self-cleavage, relative activity (ratio to wild type); higher = more cleavage; co-transcriptional.
G17C A36G: the self-cleavage was found to be 0.48.

Take G17C A36C: the self-cleavage stood at 0.532.

Take G17C U67A: the self-cleavage is 0.227.

Regarding C16U A36C, the self-cleavage stood at 0.789.

Regarding C16U A36U, the self-cleavage was determined as 0.804.

Take G17A A59C: the self-cleavage came out at 0.196.

G17A A59U: the self-cleavage came out at 0.116.

With C18G A64C, the self-cleavage came to 0.158.

For the variant C18G A64U, the self-cleavage is 0.18.

As to C18G A64G, the self-cleavage is 0.463.

Take C18G C37G: the self-cleavage stood at 0.259.

In the case of C18G C37U, the self-cleavage worked out at 0.493.

For the variant C18G C37A, the self-cleavage was found to be 0.235.

For G17A U33C, the self-cleavage is 0.113.

Take G17U G32C: the self-cleavage stood at 0.137.

As to G17U G32U, the self-cleavage was 0.121.

As for G17C G54C, the self-cleavage was determined as 0.387.

Regarding G17C G54A, the self-cleavage was 0.36.

Turning to G17A C48A, the self-cleavage worked out at 0.145.

G17A C48G: the self-cleavage was determined as 0.102.

C18A A45U: the self-cleavage worked out at 0.11.

With C18A G32A, the self-cleavage was 0.169.

For the variant G17C A49G, the self-cleavage is 0.409.

As to G17U A28G, the self-cleavage stood at 1.02.

With C18A C38A, the self-cleavage was found to be 0.132.

For G17A C50G, the self-cleavage is 0.327.

On to G17A A30G, for which the self-cleavage stood at 0.0738.

For G17A A30U, the self-cleavage is 0.0442.

Take C16U A49C: the self-cleavage came out at 0.204.

As for C16G U55A, the self-cleavage turned out to be 0.265.

Consider G17A U63G, for which the self-cleavage was determined as 0.29.

G17A U63C: the self-cleavage was 0.181.

As to G17A C18U, the self-cleavage turned out to be 1.12.

G17U A47G: the self-cleavage is 0.15.

As to G17A A28G, the self-cleavage is 1.14.

On to C18A U55C, for which the self-cleavage turned out to be 0.3.

Take G17A U20G: the self-cleavage was determined as 0.492.

Take G17A U20A: the self-cleavage was determined as 0.759.

For the variant C16U C18A, the self-cleavage is 0.985.

Regarding C16U C18G, the self-cleavage was 0.873.

As for G17U U33G, the self-cleavage came out at 0.186.

For G17U U33C, the self-cleavage came to 0.0633.

With G17A A49U, the self-cleavage stood at 0.141.

Turning to C18G G42C, the self-cleavage came out at 0.255.

On to G17C A39G, for which the self-cleavage was 0.217.

Consider C18A G34A, for which the self-cleavage stood at 1.33.

For C16G U58A, the self-cleavage was found to be 0.488.

For C18G A59C, the self-cleavage came out at 0.224.

Regarding G17U G34A, the self-cleavage was 1.24.

Regarding G17C C48G, the self-cleavage is 0.165.

Turning to G17U A26G, the self-cleavage was determined as 0.812.

Turning to C18G C66G, the self-cleavage amounted to 0.19.

On to C18G C66U, for which the self-cleavage turned out to be 0.479.

As for G17A U55A, the self-cleavage came to 0.0892.

Turning to G17A U55C, the self-cleavage is 0.354.

In the case of C18A U70C, the self-cleavage came to 0.952.

With C16G U67A, the self-cleavage stood at 0.097.

As for G17C A41G, the self-cleavage was 0.591.

As for C16U U33C, the self-cleavage is 0.27.

Turning to C16U U33A, the self-cleavage was 0.0953.

Turning to G17U G40U, the self-cleavage stood at 0.181.

As to G17A C46A, the self-cleavage is 0.191.

Regarding G17A C38G, the self-cleavage was 0.198.

Take G17U G68C: the self-cleavage was 0.162.

On to G17U G68U, for which the self-cleavage is 0.207.

Turning to C18G C50A, the self-cleavage came to 0.245.

As to C18G C50G, the self-cleavage was determined as 0.176.

C18A A22G: the self-cleavage is 0.857.

With C18G G21A, the self-cleavage worked out at 0.767.

For C16U A43C, the self-cleavage was determined as 0.174.

On to G17A G40A, for which the self-cleavage turned out to be 0.185.

For G17A A41U, the self-cleavage was 1.38.

Regarding G17A A41C, the self-cleavage amounted to 1.38.

In the case of C16U G34C, the self-cleavage turned out to be 1.53.

Turning to G17A G57C, the self-cleavage came to 0.146.

In the case of C16U G27U, the self-cleavage was 0.198.

For C16U U67G, the self-cleavage turned out to be 0.367.

Regarding C16U U67C, the self-cleavage was found to be 0.283.

In the case of C16U U52C, the self-cleavage turned out to be 0.7.

Take C16U U52A: the self-cleavage stood at 1.01.

G17A A43C: the self-cleavage was determined as 0.0401.

With G17U A59C, the self-cleavage was found to be 0.0796.

On to G17U C46A, for which the self-cleavage was 0.152.

Turning to G17U C46G, the self-cleavage amounted to 0.192.

Turning to C16U A61G, the self-cleavage is 0.148.

On to C18G A31U, for which the self-cleavage came to 0.165.

On to C18G A31G, for which the self-cleavage came out at 0.549.

G17C C38U: the self-cleavage was determined as 0.481.

As for G17C C38G, the self-cleavage worked out at 0.245.

Regarding G17U G42U, the self-cleavage is 0.343.

For G17U G42A, the self-cleavage worked out at 0.152.

Consider C18G A35U, for which the self-cleavage is 0.544.

Take C18A C65A: the self-cleavage came out at 0.957.

Turning to G17U A23U, the self-cleavage was 0.811.

Regarding G17A G21C, the self-cleavage turned out to be 0.834.

G17U U55C: the self-cleavage turned out to be 0.301.

Consider C16U A30U, for which the self-cleavage was 0.2.

C16G U60G: the self-cleavage was 0.511.

For G17C A45C, the self-cleavage came to 0.0898.

Consider C18G G56A, for which the self-cleavage worked out at 0.14.

As for C18G G56C, the self-cleavage is 0.176.

For C18A G29U, the self-cleavage is 0.198.

With C16U A41C, the self-cleavage amounted to 1.4.

Consider C16U A41G, for which the self-cleavage came to 0.809.

As to G17A A45C, the self-cleavage turned out to be 0.0797.

With C16U A64C, the self-cleavage was determined as 0.133.

For the variant G17A U67C, the self-cleavage was determined as 0.163.

Consider C18A A59U, for which the self-cleavage was 0.242.

Consider C18A A59G, for which the self-cleavage came to 0.272.

On to G17U U60A, for which the self-cleavage was 0.738.

For the variant C16U G32A, the self-cleavage amounted to 0.216.

For G17A A47G, the self-cleavage turned out to be 0.129.

As for G17U A41U, the self-cleavage is 1.51.

As for G17U U67G, the self-cleavage came to 0.278.

On to G17U U67A, for which the self-cleavage came to 0.249.

Turning to G17U C66A, the self-cleavage is 0.233.

Consider G17U C66U, for which the self-cleavage is 0.537.

For the variant C18G U20A, the self-cleavage amounted to 0.772.

Turning to C18G G27C, the self-cleavage stood at 0.0884.

As to C18G A44C, the self-cleavage turned out to be 0.164.

For the variant C18G A44U, the self-cleavage came out at 0.135.

Regarding G17U G54C, the self-cleavage worked out at 0.413.

Consider C18A A43G, for which the self-cleavage amounted to 0.085.

Turning to C18A C37U, the self-cleavage worked out at 0.64.

Turning to G17C U33C, the self-cleavage stood at 0.237.

For the variant G17C U33G, the self-cleavage is 0.121.

As for G17C U33A, the self-cleavage amounted to 0.149.

On to G17U A24G, for which the self-cleavage came out at 0.766.

For G17C G68U, the self-cleavage was 0.181.

As to C16U U58A, the self-cleavage stood at 0.731.

In the case of C16U U58C, the self-cleavage was found to be 1.1.

Take G17U A30U: the self-cleavage is 0.116.

As for G17U A30C, the self-cleavage came to 0.176.

C16U A47U: the self-cleavage was 0.0914.

On to G17A U60A, for which the self-cleavage stood at 1.02.

For the variant C16U G54A, the self-cleavage was determined as 0.518.

Take G17A G29A: the self-cleavage stood at 0.0893.

With G17A G29U, the self-cleavage was determined as 0.113.

On to G17U A64G, for which the self-cleavage came to 0.624.

In the case of C18G C38A, the self-cleavage was determined as 0.11.

As to C18G C38G, the self-cleavage amounted to 0.125.

Turning to C16U A71U, the self-cleavage was found to be 0.859.

As to G17U C38U, the self-cleavage was 0.519.

On to C18A U20A, for which the self-cleavage was determined as 0.917.

As for C18A U20G, the self-cleavage worked out at 0.946.

In the case of C18A G40C, the self-cleavage stood at 0.0959.

Consider C18A A30C, for which the self-cleavage came to 0.166.

As for C18G G29A, the self-cleavage turned out to be 0.133.

With G17C C66G, the self-cleavage amounted to 0.0719.

Turning to G17C C66A, the self-cleavage was determined as 0.154.

For C18A U62A, the self-cleavage was 0.204.

Take C18A U62C: the self-cleavage turned out to be 0.22.

Take C18A U62G: the self-cleavage came to 0.138.

In the case of C18G A36U, the self-cleavage is 0.728.

Consider G17U U63G, for which the self-cleavage amounted to 0.0762.

On to G17U U63C, for which the self-cleavage came out at 0.164.

For the variant C16U C48A, the self-cleavage was 0.114.

For the variant C18A C46A, the self-cleavage came to 0.231.

As to C18A C46U, the self-cleavage was determined as 0.1.

Regarding G17C G57C, the self-cleavage was found to be 0.206.

Consider G17C, for which the self-cleavage is 0.751.

G17A: the self-cleavage was 1.01.

In the case of G17U, the self-cleavage amounted to 0.961.

C16U G51U: the self-cleavage stood at 1.03.

Consider C16U G51C, for which the self-cleavage turned out to be 1.08.

G17C G29U: the self-cleavage stood at 0.134.

Consider C18G A41U, for which the self-cleavage is 0.906.
